Columns and labels:
[1] = target: Recombinant human erythropoietin (rhEPO) from the baculovirus/Sf9 expression system (Protein Sciences) (human)
[2] = target: Recombinant human erythropoietin (rhEPO) from the baculovirus/Sf9 expression system (Protein Sciences) (human); remark: listed apart in the source
[3] = target: Cri-IgG1 monoclonal antibody (non-recombinant, isolated from a human myeloma) (human)
[4] = target: Fc Cri-IgG1 (Cri-IgG1 treated with a protease so that only the Fc portion remained) (human)
[5] = target: Recombinant human erythropoietin (rhEPO) from the baculovirus/Sf9 expression system (Protein Sciences) (human); remark: listed apart in the source
Target sequence in this assay (chain, as listed by the source): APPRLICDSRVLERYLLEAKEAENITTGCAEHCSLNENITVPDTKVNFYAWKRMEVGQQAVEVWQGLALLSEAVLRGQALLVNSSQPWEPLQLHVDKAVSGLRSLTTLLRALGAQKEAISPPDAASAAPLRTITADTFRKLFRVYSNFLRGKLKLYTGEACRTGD

[6] = target: Ribonuclease B (RNaseB) purified from bovine pancreas (Sigma) (bovine) (UniProt P61823)
[7] = target: Cri-IgG1 monoclonal antibody (non-recombinant, isolated from a human myeloma) (human); remark: listed apart in the source
[8] = target: Fc Cri-IgG1 (Cri-IgG1 treated with a protease so that only the Fc portion remained) (human); remark: listed apart in the source
[9] = target: Cri-IgG1 monoclonal antibody (non-recombinant, isolated from a human myeloma) (human); remark: listed apart in the source
[10] = target: Fc Cri-IgG1 (Cri-IgG1 treated with a protease so that only the Fc portion remained) (human); remark: listed apart in the source
[11] = target: asialo-α1 Antitrypsin (PPL) (human)
[12] = target: ATIII (Antithrombin III) from Genzyme Transgenics (human)
[13] = target: Ribonuclease B (RNaseB) purified from bovine pancreas (Sigma) (bovine) (UniProt P61823); remark: listed apart in the source
[14] = target: Cri-IgG1 monoclonal antibody (non-recombinant, isolated from a human myeloma) (human); remark: listed apart in the source
[15] = target: Fc Cri-IgG1 (Cri-IgG1 treated with a protease so that only the Fc portion remained) (human); remark: listed apart in the source
[16] = target: Recombinant human erythropoietin (rhEPO) from the baculovirus/Sf9 expression system (Protein Sciences) (human); remark: listed apart in the source
Target sequence in this assay (chain, as listed by the source): as above

[17] = target: Recombinant human erythropoietin (rhEPO) from the baculovirus/Sf9 expression system (Protein Sciences) (human); remark: listed apart in the source
Target sequence in this assay (chain, as listed by the source): as above

Chain of Ribonuclease B (RNaseB) purified from bovine pancreas (Sigma) (bovine) (P61823 27-150): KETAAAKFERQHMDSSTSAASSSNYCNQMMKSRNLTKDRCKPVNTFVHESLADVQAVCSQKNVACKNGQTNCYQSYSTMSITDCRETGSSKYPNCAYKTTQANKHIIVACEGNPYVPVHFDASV
Chain of asialo-α1 Antitrypsin (PPL) (human) (chain, as listed by the source limits assumed): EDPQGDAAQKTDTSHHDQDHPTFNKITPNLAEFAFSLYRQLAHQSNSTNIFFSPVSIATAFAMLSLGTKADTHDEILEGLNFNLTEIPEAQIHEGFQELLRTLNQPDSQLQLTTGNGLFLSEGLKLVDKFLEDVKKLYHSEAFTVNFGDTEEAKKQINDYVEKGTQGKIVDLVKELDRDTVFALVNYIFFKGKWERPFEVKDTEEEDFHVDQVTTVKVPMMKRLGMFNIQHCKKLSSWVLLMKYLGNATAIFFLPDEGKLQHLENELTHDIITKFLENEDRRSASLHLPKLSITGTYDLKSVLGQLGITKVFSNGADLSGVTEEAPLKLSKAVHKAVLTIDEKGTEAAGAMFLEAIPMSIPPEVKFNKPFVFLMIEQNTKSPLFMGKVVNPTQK

ST6Gal1 (α2,6-sialyltransferase) (enzyme)
incorporation of radiolabelled sialic acid (% of the radiolabel) [1]: 5.7

GnT-V (enzyme)
conversion to the tri-antennary glycan (2AA HPLC) [2]: 92%

GalT1 (β1,4 galactosyltransferase 1) (from UniProt P08037) (enzyme)
relative amount of the G2 glycoform by CE [3]: 90% | relative amount of the G2 glycoform by CE [4]: 84% | released glycans with terminal galactose (HPLC, MALDI) [5]: 97% | addition of Gal; MALDI-TOF [6]: 98%

β-N-acetylhexosaminidase (from Jack Bean, Seikagaku) (enzyme)
relative amount of the M3N2F glycoform by CE [7]: 91.4% | relative amount of the M3N2F glycoform by CE [8]: 100%

B1: ST3Gal III (α2,3-sialyltransferase, EC 2.4.99.6) (enzyme)
chain: KLHLLQWEDSNSLILSLDSAGQTLGTEYDRLGFLLKLDSKLPAELATKYANFSEGACKPGYASAMMTAIFPRFSKPAPMFLDDSFRKWARIREFVPPFGIKGQDNLIKAILSVTKEYRLTPALDSLHCRRCIIVGNGGVLANKSLGSRIDDYDIVIRLNSAPVKGFEKDVGSKTTLRITYPEGAMQRPEQYERDSLFVLAGFKWQDFKWLKYIVYKERVSASDGFWKSVATRVPKEPPEIRILNPYFIQEAAFTLIGLPFNNGLMGRGNIPTLGSVAVTMALDGCDEVAVAGFGYDMNTPNAPLHYYETVRMAAIKESWTHNIQREKEFLRKLVKARVITDLSSGI
relative amount of the S2G2 glycoform by HPLC (peak at 49.4 min) [9]: 58.9% | relative amount of the S2G2 glycoform by HPLC (peak at 49.4 min) [10]: 61.9% | % Rxn (completion of sialylation by 14C-NeuAc incorporated, against terminal Gal content) [11]: 100% | % Rxn (completion of sialylation by 14C-NeuAc incorporated, against terminal Gal content) [12]: 117% | % Rxn (completion of sialylation by 14C-NeuAc incorporated, against terminal Gal content) (Asialo-fetuin (Sigma)): 116% | incorporation of radiolabelled sialic acid [1]: 10.9 moles/mole | addition of sialic acid; MALDI-TOF [13]: 90%

B2: GnT-III (β1,4-mannosyl-UDP-N-acetylglucosaminosyltransferase III) (enzyme)
chain: HFFKTLSYVTFPRELASLSPNLISSFFWNNAPVTPQASPEPGDPDLLRTPLYSHSPLLQPLSPSKATEELHRVDFVLPEDTTEYFVRTKAGGVCFKPGTRMLEKPSPGRTEEKTEVSEGSSARGPARRPMRHVLSSRERLGSRGTRRKWVECVCLPGWHGPSCGVPTVVQYSNLPTKERLVPREVPRRVINAININHEFDLLDVRFHELGDVVDAFVVCDSNFTAYGEPRPLKFREMLTNGTFEYIRHKVLYVFLDHFPPGGRQDGWIADDYLRTFLTQDGVSRLRNLRPDDVFIIDDADEIPARDGVLFLKLYDGWTEPFAFHMRKSLYGFFWKQPGTLEVVSGCTMDMLQAVYGLDGIRLRRRQYYTMPNFRQYENRTGHILVQWSLGSPLHFAGWHCSWCFTPEGIYFKLVSAQNGDFPRWGDYEDKRDLNYIRSLIRTGGWFDGTQQEYPPADPSEHMYAPKYLLKNYDQFRYLLENPYREPKSTVEGGRQNQGSDGRSSAVRGKLDTAEG
% peak area of the bisecting (NGA2F) glycoform by CE [14]: 63.6% | % peak area of the bisecting (NGA2F) glycoform by CE [15]: 58.4%

B3: GnT-I (β1,2-mannosyl-UDP-N-acetylglucosaminosyltransferase I) (enzyme)
chain: TRPAPGRPPSVSALDGDPASLTREVIRLAQDAEVELERQRGLLQQIGDALSSQRGRVPTAAPPAQPRVPVTPAPAVIPILVIACDRSTVRRCLDKLLHYRPSAELFPIIVSQDCGHEETAQAIASYGSAVTHIRQPDLSSIAVPPDHRKFQGYYKIARHYRWALGQVFRQFRFPAAVVVEDDLEVAPDFFEYFRATYPLLKADPSLWCVSAWNDNGKEQMVDASRPELLYRTDFFPGLGWLLLAELWAELEPKWPKAFWDDWMRRPEQRQGRACIRPEISRTMTFGRKGVSHGQFFDQHLKFIKLNQQFVHFTQLDLSYLQREAYDRDFLARVYGAPQLQVEKVRTNDRKELGEVRVQYTGRDSFKAFAKALGVMDDLKSGVPRAGYRGIVTFQFRGRRVHLAPPLTWEGYDPSWN
conversion of the tri-mannosyl glycoform to 'tri-mannosyl core+2 GlcNAc' (2-AA HPLC) [16]: 100%

B4: GnT-II (β1,2-mannosyl-UDP-N-acetylglucosaminosyltransferase II) (enzyme)
chain: RQRKNEALAPPLLDAEPARGAGGRGGDHPSVAVGIRRVSNVSAASLVPAVPQPEADNLTLRYRSLVYQLNFDQTLRNVDKAGTWAPRELVLVVQVHNRPEYLRLLLDSLRKAQGIDNVLVIFSHDFWSTEINQLIAGVNFCPVLQVFFPFSIQLYPNEFPGSDPRDCPRDLPKNAALKLGCINAEYPDSFGHYREAKFSQTKHHWWWKLHFVWERVKILRDYAGLILFLEEDHYLAPDFYHVFKKMWKLKQQECPECDVLSLGTYSASRSFYGMADKVDVKTWKSTEHNMGLALTRNAYQKLIECTDTFCTYDDYNWDWTLQYLTVSCLPKFWKVLVPQIPRIFHAGDCGMHHKKTCRPSTQSAQIESLLNNNKQYMFPETLTISEKFTVVAISPPRKNGGWGDIRDHELCKSYRRLQ
completion of the bi-antennary GlcNAc glycan (HPLC, MALDI) [17]: > 99% | % peak area of the bisecting (NGA2F) glycoform by CE [14]: 63.6% | % peak area of the bisecting (NGA2F) glycoform by CE [15]: 58.4%

From patent publication US20100261872A1, “Factor VIII: remodeling and glycoconjugation of factor VIII” (Neose Technologies, Inc., published 2010)
